The series deals with the molecule itself. Briefly: native gel or EMSA. In general terms: In EMSA bound probe runs differently from free probe, usually more slowly.

B1: endogenous PLOD2 of HCC38 cells (enzyme, human (endogenous in HCC38), UniProt O00469 26-737, looked up)
chain: ADSEKPSSIPTDKLLVITVATKESDGFHRFMQSAKYFNYTVKVLGQGEEWRGGDGINSIGGGQKVRLMKEVMEHYADQDDLVVMFTECFDVIFAGGPEEVLKKFQKANHKVVFAADGILWPDKRLADKYPVVHIGKRYLNSGGFIGYAPYVNRIVQQWNLQDNDDDQLFYTKVYIDPLKREAINITLDHKCKIFQTLNGAVDEVVLKFENGKARAKNTFYETLPVAINGNGPTKILLNYFGNYVPNSWTQDNGCTLCEFDTVDLSAVDVHPNVSIGVFIEQPTPFLPRFLDILLTLDYPKEALKLFIHNKEVYHEKDIKVFFDKAKHEIKTIKIVGPEENLSQAEARNMGMDFCRQDEKCDYYFSVDADVVLTNPRTLKILIEQNRKIIAPLVTRHGKLWSNFWGALSPDGYYARSEDYVDIVQGNRVGVWNVPYMANVYLIKGKTLRSEMNERNYFVRDKLDPDMALCRNAREMGVFMYISNRHEFGRLLSTANYNTSHYNNDLWQIFENPVDWKEKYINRDYSKIFTENIVEQPCPDVFWFPIFSEKACDELVEEMEHYGKWSGGKHHDSRISGGYENVPTDDIHMKQVDLENVWLHFIREFIAPVTLKVFAGYYTKGFALLNFVVKYSPERQRSLRPHHDASTFTINIALNNVGEDFQGGGCKFLRYNCSIESPRKGWSFMHPGRLTHLHEGLPVKNGTRYIAVSFIDP
Take B1: the stoichiometry N (as a rule, a count of units in the complex or per binding partner) amounted to 2.

Values taken from PMC9674263 (Proceedings of the National Academy of Sciences of the …, 2022).
